Test results from patent US20160130336A1.
pKd: −log10 of the molar value.

Target: mVEGF (mouse (from the prefix m only; not spelled out in the filing)) (UniProt Q00731)
Assay: BIAcore (SPR), column mVEGF

Chain of mVEGF (mouse (from the prefix m only; not spelled out in the filing)) (Q00731 other isoform, or with tags, fused parts or gaps limits assumed): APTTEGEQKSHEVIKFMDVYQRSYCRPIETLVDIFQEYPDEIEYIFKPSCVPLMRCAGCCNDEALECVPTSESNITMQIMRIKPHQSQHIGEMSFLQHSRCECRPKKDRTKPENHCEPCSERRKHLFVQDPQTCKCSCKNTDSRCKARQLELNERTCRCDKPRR

**Q.** Avastin® (bevacizumab) (antibody) was tested. Which pKd did it give?
**A.** Its pKd is 8.16.
